{
  "source": "patent US20070207154A1",
  "about": "“METHOD OF MODULATING VASCULARIZATION” (priority 2004, published 2007)",
  "molecules": {"B1": {"name": "PDGF-BB: platelet-derived growth factor BB, activates PDGF receptor β (protein, UniProt P01127 82-190, looked up)", "Platelet-derived growth …": "SLGSLTIAEPAMIAECKTRTEVFEISRRLIDRTNANFLVWPPCVEVQRCSGCCNNRNVQCRPTQVQLRPVQVRKIEIVRKKPIFKKATVTLEDHLACKCETVAAARPVT", "modifications": "BB homodimer"}},
  "test_system": "sprouting from wild-type, TFΔCT and PAR-2-deficient aortas",
  "test": "ex vivo angiogenesis assay (aortic ring sprouting in Matrigel)",
  "type": "cell-based, mouse",
  "details": "wild-type and TFΔCT aortas, EGM without serum, day 4; growth factors 20 ng/ml, VIIa 50 nM (FIG. 2c)",
  "method": "Angiogenesis assays. The ex vivo angiogenesis assay was adopted from the rat aortic sprouting model described by Masson et al. Biol. Proced. […] Thoracic aortas from 8-11 week old wild-type, TFΔCT, PAR-2-deficient, and TFΔCT/PAR-2-deficient mice of either sex were embedded in Matrigel, and overlaid with EGM supplemented with 5% serum, growth factors, or inhibitors at the following concentrations: VEGF, bFGF, and PDGF: 20 ng/ml; hirudin: 500 nM, VIIai: […], NAPc2: […], NAP5: 1 μM, VIIa: 50 nM. In most cases, the number of aortic sprouts was determined at day 3 and 4 without knowledge of the genotype. Aortic ring RNA was isolated by Trizol (Invitrogen) extraction using standard procedures, digested with DNAaseI, followed by RT-PCR for β-actin and TF. […] Tests used 2 different virus doses, referred to as high (1.1×10^10 virus particles/ml) and low (5×10^9 particles/ml). For confocal fluorescence microscopy, aortic pieces with a minimum of surrounding Matrigel were fixed with 4% paraformaldehyde and methanol, incubated with primary and secondary antibodies (24 hours each), and mounted in anti-fade medium (Vector laboratories). Alternatively, cryosections of OCT-embedded aortas were fixed with acetone and stained as described above.",
  "data": [
    {"molecule": "B1", "values": [
      {"measurement": "sprouting induced by single factor replacing serum", "result": "None of these factors promoted substantial sprouting"}
    ]}
  ]
}
